These results are taken from FireProtDB (doi:10.1016/j.bbapap.2014.10.010).

The conditions of the data set: Homo sapiens; pH 7.4; Thermal; DSC; Hepes 20 mM; NaCl 200 mM; transition: 2; reversible: No; whole UniProt chain shown.

B1: Alanine--glyoxylate aminotransferase wild type, P21549 (protein)
chain: MASHKLLVTPPKALLKPLSIPNQLLLGPGPSNLPPRIMAAGGLQMIGSMSKDMYQIMDEIKEGIQYVFQTRNPLTLVISGSGHCALEAALVNVLEPGDSFLVGANGIWGQRAVDIGERIGARVHPMTKDPGGHYTLQEVEEGLAQHKPVLLFLTHGESSTGVLQPLDGFGELCHRYKCLLLVDSVASLGGTPLYMDRQGIDILYSGSQKALNAPPGTSLISFSDKAKKKMYSRKTKPFSFYLDIKWLANFWGCDDQPRMYHHTIPVISLYSLRESLALIAEQGLENSWRQHREAAAYLHGRLQALGLQLFVKDPALRLPTVTTVAVPAGYDWRDIVSYVIDHFDIEIMGGLGPSTGKVLRIGLLGCNATRENVDRVTEALRAALQHCPKKKL
B1: the Tm was found to be 82.1 °C and the “unfolding enthalpy (calorimetric)” value was determined as 547 kcal/mol.
